# Target: ClpB_(E279A,E678A) (E. coli, UniProt P63284 1-857, E279A | E678A)
# Assay: fluorescence polarisation
row,Binder,binding result
1,"DnaK_(py-N282A*) (natural protein, N-(1-pyrene)maleimide label (K106C introduced for labeling); degree of labeling between 0.1 and 0.5) not shown",binds
2,"DnaK_(py-Q57A*) (natural protein, N-(1-pyrene)maleimide label (K106C introduced for labeling); degree of labeling between 0.1 and 0.5) not shown",binds
